Measurements as given in patent US20240360242A1 (KISOJI BIOTECHNOLOGY, published 2024).
Numbering of substitutions follows the chain as printed.

B1: KD039 (antibody, V domains shown)
VH: QVQLQESGGGMVQPGGSLRLSCAASGFPFSSADMSWVRQAPGKGLEWVSYINADGSKTYYADTVKGRFTISRDNSKNTLYLQMNSLRAEDTAVYRCARAKLTDTHYVEDYWGQGTQVTVSS
notes: KD002 humanized variant
B2: KD040 (antibody, V domains shown)
VH: B1 VH with M11L, G44Q, L45R, Q116M
notes: KD002 humanized variant
B3: KD042 (antibody, V domains shown)
VH: B1 VH with M11L, D54N, Q116M
notes: KD002 humanized variant
B4: KD037 (antibody, V domains shown)
VH: B1 VH with M11L, S85N, Q116M
notes: KD002 humanized variant
B5: KD038 (antibody, V domains shown)
VH: B1 VH with M11L, V93L, Q116M
notes: KD002 humanized variant
B6: KD041 (antibody, V domains shown)
VH: B1 VH with M11L, D54E, Q116M
notes: KD002 humanized variant
B7: KD054 (antibody, V domains shown)
VH: QVQLQESGGGLIQPGGSLRLSCAASGFTFSGSDMSWVRQAPGKGLEWVSYITSGGTTYYADTVKGRFTISRDNSKNTLYLQMNSLRAEDTAVYRCAKSRLTDSHYVEDAWGQGTLVTVSS
notes: KD005 humanized variant
B8: KD052 (antibody, V domains shown)
VH: B7 VH with Q1E, Q5V, Y50V, R94Y
notes: KD005 humanized variant
B9: KD050 (antibody, V domains shown)
VH: B7 VH with I12V, L45P, A60P, R86K, A87P, E88D, L115Q
notes: KD005 humanized variant
B10: KD056 (antibody, V domains shown)
VH: B7 VH with Q5V
notes: KD005 humanized variant
B11: KD043 (antibody, V domains shown)
VH: B7 VH with Q1E, Q5L, I12V, Y50A, R94Y
notes: KD005 humanized variant
B12: KD045 (antibody, V domains shown)
VH: B7 VH with Q1E, Q5L, I12V
notes: KD005 humanized variant
B13: KD057 (antibody, V domains shown)
VH: B7 VH with Y50V
notes: KD005 humanized variant
B14: KD046 (antibody, V domains shown)
VH: B7 VH with Q5L, I12V, L45P, R94Y
notes: KD005 humanized variant
B15: KD055 (antibody, V domains shown)
VH: B7 VH with Q1E
notes: KD005 humanized variant
B16: KD044 (antibody, V domains shown)
VH: B7 VH with Q1E, Q5L, I12V, R94Y
notes: KD005 humanized variant
B17: KD020 (antibody, V domains shown)
VH: B1 VH with Q1E, Q5V, M11L, S35H, E46V, Y50R, Y59S, S75A, R95Y, Q116L
notes: KD002 humanized variant

What follows are binders tested against T1, recombinant human TROP2 extracellular domain (aa 1-274) comprising His tag (human, UniProt P09758 27-274) (assay: ELISA, coated rh TROP2).
T1 construct: Used here for all assays on recombinant human TROP2 (ELISA, immunoblot, SPR, crystal), although only some of them name the catalogue number; also called human recombinant TROP2; recombinant human TROP2 protein; not shown: His tag
T1 sequence: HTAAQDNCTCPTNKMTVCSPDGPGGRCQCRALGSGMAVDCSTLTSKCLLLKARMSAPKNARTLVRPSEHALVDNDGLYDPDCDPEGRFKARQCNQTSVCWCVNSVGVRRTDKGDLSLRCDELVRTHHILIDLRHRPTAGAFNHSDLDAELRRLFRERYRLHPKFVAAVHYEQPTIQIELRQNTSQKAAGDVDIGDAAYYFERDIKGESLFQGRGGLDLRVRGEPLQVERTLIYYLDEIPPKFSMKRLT
Protocol: (§1) Human TROP2 recombinant proteins were coated on 96-well ELISA plates at the concentration of 1 μg/mL. Plates were covered with adhesive plate cover and stored at 4° C. overnight. The next day, plates were washed 3× with washing buffer (PBS with 0.1% Tween™ 20). Plates were blocked with 2% fat-free BSA in washing buffer for 1 hour at 37° C. During the incubation time, the TROP2 reference antibodies, as well as the humanized variants, were diluted in the blocking buffer to the indicated concentrations. […] After blocking, the blocking buffer was removed from the wells and 100 μL of anti-TROP2 sdAbs dilutions were transferred to the corresponding wells. Plates were covered with adhesive plates cover and incubated at 37° C. for 1 hour. During the primary antibody incubation, the secondary antibody (goat anti-human IgG, HRP conjugated) was diluted 1 in 5000 with the blocking buffer. Plates were washed 3× with blocking buffer, followed by secondary antibody incubation for another 1 hour at 37° C. After the secondary antibody incubation, plates were washed 3× with washing buffer and added with 100 μL of ELISA chemiluminescent substrate (Thermofisher). The luminescence signal was detected by SpectraMax i3x at […].
B1 showed an EC50 of 150 pM. B2 showed an EC50 of 50 pM. B3 was tested, and the EC50 was 70 pM. In the case of B4, the EC50 is reported as 180 pM. B5 gave an EC50 of 260 pM. Binder B6 has an EC50 of 150 pM.

Target: T1, recombinant human TROP2 extracellular …
Experiment: ELISA, coated rh TROP2
Remark: another data set of the same source
Protocol: as §1
For B7, the EC50 was 70 pM and the “EC50% to KD005” value was 0.875 ratio to KD005. For B8, the EC50 was 70 pM and the “EC50% to KD005” value was 0.875 ratio to KD005. B9 was tested, and the EC50 was 100 pM and the “EC50% to KD005” value was 1.25 ratio to KD005. In the case of B10, the EC50 is reported as 90 pM and the “EC50% to KD005” value is reported as 1.12 ratio to KD005. In the case of B11, the EC50 is reported as 90 pM and the “EC50% to KD005” value is reported as 1.12 ratio to KD005. B12 was tested, and the EC50 was 90 pM and the “EC50% to KD005” value was 1.12 ratio to KD005. In the case of B13, the EC50 is reported as 90 pM and the “EC50% to KD005” value is reported as 1.12 ratio to KD005. With B14 the EC50 was 80 pM and the “EC50% to KD005” value was 1 ratio to KD005. For B15, the EC50 was 80 pM and the “EC50% to KD005” value was 1 ratio to KD005. In the case of B16, the EC50 is reported as 80 pM and the “EC50% to KD005” value is reported as 1 ratio to KD005.

The binders below were run against T1, recombinant human TROP2 extracellular … (assay: ELISA, coated rh TROP2, normalized to KD005).
For B7, the “EC50 relative to KD005” value was 0.93 ratio to KD005. In the case of B8, the “EC50 relative to KD005” value is reported as 0.93 ratio to KD005. For B9, the “EC50 relative to KD005” value was 1.12 ratio to KD005. In the case of B10, the “EC50 relative to KD005” value is reported as 1.21 ratio to KD005. For B11, the “EC50 relative to KD005” value was 1.01 ratio to KD005. In the case of B12, the “EC50 relative to KD005” value is reported as 1.01 ratio to KD005. With B13 the “EC50 relative to KD005” value was 1.15 ratio to KD005. In the case of B14, the “EC50 relative to KD005” value is reported as 0.9 ratio to KD005. B15 was tested, and the “EC50 relative to KD005” value was 1.12 ratio to KD005. In the case of B16, the “EC50 relative to KD005” value is reported as 0.9 ratio to KD005.

The binders below were run against T1, recombinant human TROP2 extracellular … (assay: ELISA on coated recombinant human TROP2, 0.00256-200 nM, RLU).
Protocol: as §1
B17: binds.
